Test results from US20170066831A1 (Janssen / Centocor, published 2017).

What was measured:
[1] = target: T1, HH-ST2L variant 93NL94 (substitution 93TF94 to 93NL94) (human, UniProt Q01638 19-205); assay: SPR, ProteOn XPR36, 25 C; mAb captured on anti-Fc surface, ST2L-D1D2 (HH-ST2L) variant injected; 1:1 model
T1 chain: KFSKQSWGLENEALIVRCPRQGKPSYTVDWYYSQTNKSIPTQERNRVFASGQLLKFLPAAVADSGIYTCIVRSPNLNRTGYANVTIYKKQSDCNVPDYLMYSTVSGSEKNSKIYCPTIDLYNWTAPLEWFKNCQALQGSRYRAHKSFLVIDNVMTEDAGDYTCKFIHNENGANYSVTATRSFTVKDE
Description: (§1) Binding studies were performed using the ProteOn XPR36 Protein Interaction Array system (Bio-Rad) (Bravman T, et al. Anal Biochem 358:281-288, 2006). […] Individual anti-ST2L mAb was then captured by flowing (1 μg/mL) antibody solution prepared in PBS containing 0.5% Nonidet P-40 and 0.5% Na-deoxycholate). The signal in the surfaces reached ˜250 resonance units (RU, 1 RU=1 pg protein/mm²) in the anti-Fc-coated surfaces, confirming that these antibodies specifically capture anti-ST2L mAbs. After 90° rotation of the fluid system, wild type of ST2L-D1D2 or variant proteins (0.5 mg/mL in PBS containing 0.5% Nonidet P-40 and 0.5% Na-deoxycholate) was injected in the parallel flow channels. All of these assays were performed at 25° C. The ST2L-D1D2-dependent signals on the surfaces were obtained by double referencing, subtracting the response observed on surfaces immobilizing the antibodies alone, and the signal observed injecting the vehicle alone (which allows correction for binding-independent responses). The resulting sensorgrams were fitted by the simplest 1:1 interaction model (ProteOn analysis software), to obtain the corresponding association and dissociation rate constants (kₐ and kd).

108QSD110-->PPS = target: T2, 108QSD110-->PPS; assay: as above
T2 receptor fragment (Domains I and II): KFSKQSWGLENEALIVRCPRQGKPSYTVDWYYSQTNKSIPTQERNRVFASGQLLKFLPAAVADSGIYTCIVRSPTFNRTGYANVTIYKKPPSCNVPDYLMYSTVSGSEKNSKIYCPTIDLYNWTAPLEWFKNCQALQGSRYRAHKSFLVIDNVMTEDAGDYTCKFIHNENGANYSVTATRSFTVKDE
Description: as §1

E61K = target: T3, E61K; assay: as above
T3 construct: also called HH-ST2L (ST2L-D1D2) variant E61K
T3 receptor fragment (Domains I and II): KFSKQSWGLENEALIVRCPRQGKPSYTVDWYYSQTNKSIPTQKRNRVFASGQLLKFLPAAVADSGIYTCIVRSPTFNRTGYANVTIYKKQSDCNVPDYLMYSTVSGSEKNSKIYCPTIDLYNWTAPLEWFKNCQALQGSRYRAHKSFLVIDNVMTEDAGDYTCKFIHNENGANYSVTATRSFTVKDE
Description: as §1

K55E = target: T4, K55E; assay: as above
T4 construct: also called HH-ST2L (ST2L-D1D2) variant K55E
T4 receptor fragment (Domains I and II): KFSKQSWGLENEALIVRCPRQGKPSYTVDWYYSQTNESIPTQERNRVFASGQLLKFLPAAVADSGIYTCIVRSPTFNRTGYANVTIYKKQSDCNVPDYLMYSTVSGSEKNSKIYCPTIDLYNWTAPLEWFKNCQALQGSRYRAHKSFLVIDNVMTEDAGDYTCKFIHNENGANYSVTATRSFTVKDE
Description: as §1

69GQL71-->RDR = target: T5, 69GQL71-->RDR; assay: as above
T5 construct: also called HH-ST2L (ST2L-D1D2) variant with 69GQL71 changed to RDR
T5 receptor fragment (Domains I and II): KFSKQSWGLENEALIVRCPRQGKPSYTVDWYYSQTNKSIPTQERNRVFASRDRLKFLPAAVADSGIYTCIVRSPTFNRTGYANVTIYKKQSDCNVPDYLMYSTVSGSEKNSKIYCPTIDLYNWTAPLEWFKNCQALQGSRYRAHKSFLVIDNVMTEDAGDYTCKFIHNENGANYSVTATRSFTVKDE
Description: as §1

A78R = target: T6, A78R; assay: as above
T6 construct: also called HH-ST2L (ST2L-D1D2) variant A78R
T6 receptor fragment (Domains I and II): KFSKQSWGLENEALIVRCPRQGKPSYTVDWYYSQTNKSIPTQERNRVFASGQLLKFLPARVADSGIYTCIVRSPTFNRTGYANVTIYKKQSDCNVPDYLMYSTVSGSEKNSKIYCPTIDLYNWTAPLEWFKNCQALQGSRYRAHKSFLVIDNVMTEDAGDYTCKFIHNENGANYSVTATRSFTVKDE
Description: as §1

[2] = target: T1, HH-ST2L variant 93NL94 (substitution …); assay: ProteOn SPR, mAb captured by anti-Fc, ST2L-D1D2 variant injected
Description: as §1
Residue numbering is according to full length human ST2L of SEQ ID NO: 1.

- koff [1]: 0.000625 s⁻¹
- kon [1]: 1.27e+07 M⁻¹ s⁻¹
- Kd (108QSD110-->PPS): 10 pM
- koff (108QSD110-->PPS): 0.000119 s⁻¹
- kon (108QSD110-->PPS): 1.28e+07 M⁻¹ s⁻¹
- Kd (E61K): 8.1 pM
- koff (E61K): 0.000126 s⁻¹
- kon (E61K): 1.55e+07 M⁻¹ s⁻¹
- Kd (K55E): 10 pM
- koff (K55E): 0.000129 s⁻¹
- kon (K55E): 1.26e+07 M⁻¹ s⁻¹
- Kd (69GQL71-->RDR): 9.6 pM
- koff (69GQL71-->RDR): 9.27e-05 s⁻¹
- kon (69GQL71-->RDR): 1.02e+07 M⁻¹ s⁻¹
- Kd (A78R): 10.4 pM
- koff (A78R): 0.00013 s⁻¹
- kon (A78R): 1.24e+07 M⁻¹ s⁻¹
- Kd [2]: ~49.5 pM
- fold reduction of binding affinity against wild type ST2L-D1D2 [2]: ~5 fold
B1: STLM208 (antibody, V domains shown)
VH: EVQLLESGGGLVQPGGSLRLSCAASGFTFSIYDMIWVRQAPGKGLEWVSSIRGEGGGTYYADSVKGRFTISRDNSKNTLYLQMNSLRAEDTAVYYCARDPWSTEGSFFVLDYWGQGTLVTVSS
VL: EIVLTQSPATLSLSPGERATLSCRASQSVDDDLAWYQQKPGQAPRLLIYDASNRATGIPARFSGSGSGTDFTLTISSLEPEDFAVYYCQQYITAPLTFGQGTKVEIK
notes: frameworks VH3-23 / Vk-L6
